Values of other authors in publication PMC8246649 (Biochemistry, 2021).

Key:
UNC119B = UNC119B (Homo sapiens, UniProt A6NIH7); details: read-out: Reported Kd of release factor to UNC119B
UNC119A = UNC119A (Homo sapiens, UniProt Q13432); details: read-out: Reported Kd of release factor to UNC119A

Chain of UNC119B (A6NIH7 whole entry): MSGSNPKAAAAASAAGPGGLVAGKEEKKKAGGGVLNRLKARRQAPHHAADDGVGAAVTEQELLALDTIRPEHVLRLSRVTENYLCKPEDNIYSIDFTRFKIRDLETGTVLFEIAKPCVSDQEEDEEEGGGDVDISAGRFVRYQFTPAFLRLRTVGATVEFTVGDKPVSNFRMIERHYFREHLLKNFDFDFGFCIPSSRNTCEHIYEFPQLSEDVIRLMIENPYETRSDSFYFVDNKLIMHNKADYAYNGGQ

Row | Kd (UNC119B) [nM] | Kd (UNC119A) [nM] | Substance
1 | 216 | 159 | ARL2: ADP ribosylation factor-like protein 2, release factor of UNC119 cargo
2 | 33 | – | ARL3: ADP ribosylation factor-like protein 3, release factor of UNC119 cargo
